Among the data in PMC3725402, “Evolution of the key alkaloid enzyme putrescine N-methyltransferase from spermidine synthase” (Frontiers in Plant Science, 2013) are Km values, retold here.

This series has as its system NCCCCN. The experiment in a line: purified protein. Conditions: PMT activity, co-substrate SAM, 20 mM HEPES pH 8.0, 37°C, 2 mM DTT, 1 mM ascorbic acid.

On to “DsPMT (putrescine N-methyltransferase) (Datura stramonium; H108L)”, for which the Michaelis-Menten constant (Km) was found to be 3130 ± 732.59 µM. Then “DsPMT (putrescine N-methyltransferase) (Datura stramonium)”, with 190 ± 27.67 µM.

Broadly, the Km is the concentration of substrate that gives half-maximal velocity.
